Like-named read-outs stand apart in the source and are kept apart here.
Columns and labels:
[1] = Size exclusion chromatography: biochemical integrity, monomer content; type: physicochemical; settings: by anti-solvent used in processing
Procedure: A protein-Pak 125 column (Waters, USA) was used for insulin. The mobile phase consisted of 50 mM sodium phosphate buffer at pH 3 with 300 mM sodium chloride. The powder samples were dissolved to prepare 1 mg/mL solution in deionised water by gentle shaking for 10 minutes to have complete dissolution. The supernatant was filtered through […] membrane filter and then injected into the HPLC column. […] The software Millennium 3.5 was used in the quantification of the monomer content.

[2] = Aerosol performance by Cascade Impactor (5 stage Marple-Miller Impactor), fine particle mass; type: physicochemical; settings: 60 L/min, Dinkihaler, FIG. 6
Procedure: In order to determine the aerosol performance of the collected fine protein particles, in vitro testing of the particles was assessed using a 5 stage Marple-Miller Impactor (Model 160, MSP Corporation, USA) with cut-off diameters of 10.0, 5.0, 2.5, 1.25, and 0.625 μm. The Marple-Miller impactor consisted of a stainless steel inlet throat, five impaction stages and an integral filter stage. The stages were previously coated with propylene glycol/methanol (50:50) to prevent particle bounce, thus minimising the probability of carry over of coarse particles onto lower stages.
A mass of 10-20 mg of insulin was weighed into a gelatin capsule (size 3, Park Davis, Australia) and was immediately dispersed by a powder inhaler device, Dinkihaler (Aventis, Frankfurt, Germany) into the Marple Miller Impactor at 60 L/min using a vacuum source (ERWEKA GMBH, Germany). The fraction of the protein recovered in each stage was calculated by measuring the absorbance of the protein solution against the absorbance of a standard 1% solution of insulin.

[3] = Median particle size by laser diffraction; type: physicochemical
Excerpt: These fine insulin particles may aggregate to form larger particles due to intermolecular interaction between the molecules. […] Insulin precipitated as nano-sized particles, was also agglomerated to micron-sized particles.

[4] = Size of precipitated primary particles (SEM images); type: physicochemical
Excerpt: These fine insulin particles may aggregate to form larger particles due to intermolecular interaction between the molecules.

[5] = values reported in the literature; cited from earlier work

Substance	retention of biological activity as indicated by the in vitro test for monomer content [1]	fine particle fraction (%<5 μm) [2]	median particle size (laser diffraction) of agglomerated powder [3]	median particle size (laser diffraction) of agglomerated powder ([3]; listed as Insulin)	size of nano-sized particles as precipitated ([4]; modified (dual chamber) ASES apparatus)	size of nano-sized particles as precipitated ([4]; single-stage apparatus)	maximum FPM for insulin obtained by other methods [5]
CO2-ethanol: Insulin particles precipitated from aqueous solution using CO2-20 mol % ethanol as anti-solvent	significant deactivation	–	–	–	–	–	–
Ethane-ethanol	retention of biological activity	–	–	–	–	–	–
insulin: Low endotoxin bovine insulin (Sigma), micronised from aqueous solution by the ASES process into fine particles	–	at least 42%	5 μm	about 5 μm	50-500 nm	50-500 nm	≤ 10%

From US8609611B2, “Synthesis of small particles” (MAP Pharmaceuticals, Inc., priority 2001, dated 2013)
